Experimental data published in a protein production outcome set (Wang et al. 2014).

Test: label from the status in PepcDB records

Row | Sequence | protein production
1 | MRILILGMGGTIASVKGERGYESALSVSKILKLAGISSEAKIEARDLMNVDSTLIQPSDWERLAKEIEKEVWEYDGIVITHGTDTMAYSASMLSFMLRNPPIPIVLTGSMLPITEKNSDAPFNLRTALEFVKLGIRGIYIAFNGKVMLGVRASKIRSMGFDAFESINYPNVAEIKDDKLRILHIPDFYGDEFFSDIKYEPKVLVIKLIPGLSGDIVREALRLGYKGIILEGYGVGGIPYRGTDLFEVVSSISKRIPVVLTTQAIYDGVDLQRYKVGRIALEAGVIPAGDMTKEATITKLMWILGHTKNIEEVKQLMGKNITGELTRVS | not failed
2 | MRILLVSRPHPEGARDPFTSLLPTGLGYLNAVLRENGFTSSLANLSTASWRQVEELLRRERPAILGISVFTHNRFESLRLAALAKKVDPTCLTIFGGPHATHAFESILVKYREVDGVILGEGEETFLDLARAVERGDRSLTGIVGLAYRKGAKVHSVKRPPVADLDVLPLPALHMNDAWGCDVRRQLEFIITSRGCPAACRFCSSPRFWGKSLRFRSPRAMVDEIRAIRDRYGLIYFSLRDDTFTVRKDRVIDFCRLLLEEKVHILWNCQSRVNAVDEEMLIWMRRAGCECVQYGVESGSEKILAYLGKQITPEQVRRAAKATRRAGISLSIYLISGVPGETDDDLQATLTLISNILPHDGHVAPLAYYPGTALFDEAVREGRVGADLFERERGAALYVRRDPFVARSMETLLRALTRVERKARFGPADFTAQREFLGYCHGTNLGQGEWLEAKGDIGKAEALYREIVERQPENPWGWLALGGLHGSRGDVTRAGKAFERAISLVPAHVPAYLALGDLRLEEGDQRGAKQLYETAKRLNPRDTDVGERLRMVVAERGTKKGDT | failed
3 | MRINPGEITKVLEEKIKSFEEKIDLEDTGKVIQVGDGIARAYGLNKVMVSELVEFVETGVKGVAFNLEEDNVGIIILGEYKDIKEGHTVRRLKRIIEVPVGEELLGRVVNPLGEPLDGKGPINAKNFRPIEIKAPGVIYRKPVDTPLQTGIKAIDSMIPIGRGQRELIIGDRQTGKTAIAIDTIINQKGQGVYCIYVAIGQKKSAIARIIDKLRQYGAMEYTTVVVASASDPASLQYIAPYAGCAMGEYFAYSGRDALVVYDDLSKHAVAYRQLSLLMRRPPGREAYPGDIFYLHSRLLERAVRLNDKLGGGSLTALPIVETQANDISAYIPTNVISITDGQIYLEPGLFYAGQRPAINVGLSVSRVGGSAQIKAMKQVAGMLRIDLAQYRELETFAQFATELDPATRAQIIRGQRLMELLKQEQYSPMPVEEQVVVLFAGVRGYLDDLPVEEVRRFEKEFLRFMHEKHQDILDDIKTKKELTSETEEKLKKAIEEFKTTFRV | not failed
4 | MRISAWLLCSLSFIAPLSWAESSPADIAAQKQQQILFFNHDDRDIVPDTAVWPWQAIGQLETASGNLCTATLISPHLALTAGHCVVTPPKGEIDNPVALRFLATENGWRYETTEIEALANKTLAKKLKADGEGWIVPPSAAPLDYALIRLKQTPPGIRPLPLWQGSRQELMQALKDNGQRVTQAGYPEDHQETLYRHQDCLITGWVHAAVMAHQCDTLPGDSGSPLMLNSAAGWVLMGIQSSAPDASERDRADNRAVSVTAIRQQLETLAKLSSPKPGSPKLSPK | failed
5 | MRITSTANPRIKELARLLERKHRDSQRRFLIEGAREIERALQAGIELEQALVWEGGLNPEEQQVYAALGRVGRLALLEVSEAVLKKLSVRDNPAGLIALARMPERTLEEYRPSPDALILVAVGLEKPGNLGAVLRSADAAGAEAVLVAGGVDLYSPQVIRNSTGVVFSLRTLAASESEVLDWIKQHNLPLVATTPHAEALYWEANLRPPVAIAVGPEHEGLRAAWLEAAQTQVRIPMQGQADSLNVSVSAALLLYEALRQRLLRDRLTKTHSTL | not failed
6 | MRIVAPVMPRHFDEAQAIDISKYEDVNLIEWRADFLPKDEIVAVAPAIFEKFAGKEIIFTLRTVQEGGNITLSSQEYVDIIKEINAIYNPDYIDFEYFTHKSVFQEMLDFPNLILSYHNFEETPENLMEAFSEMTKLAPRVVKIAVMPQSEQDVLDLMNYTRGFKTLNPEQEFATISMGKLGRLSRFAGDVIGSSWTYVSLDHVSGPGQVTLNDMKRIIEVLEMDISN | not failed
7 | MRIVPFGAAREVTGSAHLLLAGGRRVLLDCGMFQGKEEARNHAPFGFDPKEVDAVLLTHAHLDHVGRLPKLFREGYRGPVYATRATVLLMEIVLEDALKVMDEPFFGPEDVEEALGHLRPLEYGEWLRLGALSLAFGQAGHLPGSAFVVAQGEGRTLVYSGDLGNREKDVLPDPSLPPLADLVLAEGTYGDRPHRPYRETVREFLEILEKTLSQGGKVLIPTFAVERAQEILYVLYTHGHRLPRAPIYLDSPMAGRVLSLYPRLVRYFSEEVQAHFLQGKNPFRPAGLEVVEHTEASKALNRAPGPMVVLAGSGMLAGGRILHHLKHGLSDPRNALVFVGYQPQGGLGAEIIARPPAVRILGEEVPLRASVHTLGGFSGHAGQDELLDWLQGEPRVVLVHGEEEKLLALGKLLALRGQEVSLARFGEGVPV | not failed
8 | MRKIFLACPYSHADAEVVEQRFRACNEVAATIVRAGHVVFSQVSMSHPINLCLAELDRAAIGRLWAPVDAFYMDHLEELIVLDLPGWRDSAGIRREMEFFEAGGQRVSLWSEVEHEFR | not failed
9 | MRKIVLFGDSITAGYLDEAVSPVLVDLVKRDIAAMGLEEVAVINAGMPGDTTEDGLKRLNKEVLIEKPDEVVIFFGANDASLDRNITVATFRENLETMIHEIGSEKVILITPPYADSGRRPERPQTRIKELVKVAQEVGAAHNLPVIDLYKAMTVYPGTDEFLQADGLHFSQVGYELLGALIVREIKGRLKPKQA | not failed
10 | MRKLDRVDMQLVKILSENSRLTYRELADILNTTRQRIARRIDKLKKLGIIRKFTIIPDIDKLGYMYAIVLIKSKVPSDADKVISEISDIEYVKSVEKGVGRYNIIVRLLLPKDIKDAENLISEFLQRIKNAENVEVILISEVRKFEII | not failed
11 | MRKLFIPLLLFSALEANEKNGFFIEAGFETGLLEGTQTQEKRHTTTKNTYATYNYLPTDTILKRAANLFTNAEAISKLKFSSLSPVRVLYMYNGQLTIENFLPYNLSNVKLSFTDAQGNVIDLGVIETIPKHSKIVLPGEAFDSLKIDPYTLFLPKIEATSTSVSDANTQRVFETLNKIKTDLVVNYRNENKFKDHENHWEAFTPQTAEEFTNLMLNMIAVLDSQSWGDAILNAPFEFTNKDGGEECDTSKENECVNPGTNGRVNSKVDQQYVLNKQDIVNKFRNKADLDVVILKDSGVVGLGSDITPSNNDDGKHYGQLGVVASALDPKKLFGDNLKTINLEDLRTILHEFSHTKGYTHNGNMTYQRVPVMKDGQVEKDSNGKPKDSDGLPYNVCSLYGGQGQSAFPSNYPNSIYHNCADVPAGFLGVTAAVWQQLINQNALPINYANLSTQTNYNLNASLNTQDLANSMLSTIQKTFVTSSVTNHYSSSASQSFRSPILGVNAKIGYQNYFNDFIGLAYYGIIKYNYAKAINQKVQQLSYGGGIDLLLDFITTYSNKNSPTGIQTKRNFSSSFGIFGGLRGLYNSYYVLNKVKGSGNLDVATGLNYRYKHSKYSVGISIPLIQRKASVVSNGGDYTNSFVFNEGASHFKVFFNYGWVF | failed
12 | MRKLLLGLSALTLATASAAAAQDPGPAAPVQYEVAFPNATHREARITATFRKVPKGALQLRMSRSSPGRYAIHEFAKNVYQVTAVDGAGKPLKVDRAEPYGWSVSGHDGTVKVTYTLYADRGDGTYSQIDTTHAHLNMPATFLWAVGYHDKPIRVRFERADPSWKIATQLPPVAGQPDSFWAPNLQYFMDSPTELSAMTVREWKVTDKGRDYTFRLALHHTGTEADADTFAEKLKAIVPEHIKVFGELPKFDYGEYTFIADYMPQITGDGMEHRNSTFISQPRSLFRGNFSQLGTASHELFHAWNVERIRPAELEPFDFTKANPTPSLWLAEGFTQYYGPLLIRRAGQSSMDEFLTGLSGTLNGVVNGPGRLYGSPQEMSLRAPFVDAAAALDPVNPNIFTSYYPYGAVIGLALDLQLRGRDKPLSLDDFMKQMWRAHGVTEKPYTPADVRAALAKTTGDQAFADAFFKASIEGSALPDFAPLLERAGLKLRQKAPKKAWLGAARVKVSGTELLLDAPPVPNSPLYGAGVEVGDRIISIGRFVFANESDWTDALDRLKPGEAMTVQFIQRGQVREAPMTIAADPTLEVVRFEKVDLKPTEAQLAFRTAWLGAEAEAAK | failed
13 | MRKRARIIYNPTSGKELFKRELPDALIKLEKAGYETSAYATEKIGDATLEAERAMHENYDVLIAAGGDGTLNEVVNGIAEKPNRPKLGVIPMGTVNDFGRALHIPNDIMGALDVIIEGHSTKVDIGKMNNRY | failed
